T1: Cynomolgus monkey complement Factor D (cynomolgus monkey, UniProt P00746 26-253 (human entry))
T1 construct: also called cyfD; cFD
T1 chain: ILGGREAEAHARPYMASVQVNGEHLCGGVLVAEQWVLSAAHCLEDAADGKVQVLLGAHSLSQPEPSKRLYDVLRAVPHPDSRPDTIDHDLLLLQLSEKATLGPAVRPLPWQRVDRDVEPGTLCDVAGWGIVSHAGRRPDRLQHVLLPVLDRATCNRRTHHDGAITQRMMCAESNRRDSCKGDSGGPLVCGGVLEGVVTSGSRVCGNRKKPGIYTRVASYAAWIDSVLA


What was measured:
[1] = molecular target: T2, Human complement Factor D, mature (human, UniProt P00746 27-253); assay: cell-based or functional assay
Target sequence in this assay (P00746 27-253): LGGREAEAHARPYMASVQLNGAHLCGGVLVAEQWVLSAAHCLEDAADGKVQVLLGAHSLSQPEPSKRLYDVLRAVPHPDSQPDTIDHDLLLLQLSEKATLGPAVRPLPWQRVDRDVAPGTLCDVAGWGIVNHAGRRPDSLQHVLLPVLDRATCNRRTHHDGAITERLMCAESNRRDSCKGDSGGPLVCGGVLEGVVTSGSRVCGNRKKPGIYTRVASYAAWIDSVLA

[2] = molecular target: T2, Human complement Factor D, mature; assay: cell-based or functional assay; remark: listed apart in the source
[3] = molecular target: T2, Human complement Factor D, mature; assay: SPR (Biacore T200): Fab captured with anti-huFab kit, human Factor D injected, 25 C, 1:1 model;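 further: sensorgrams were corrected by subtracting a blank injection of running buffer before fitting kinetic and affinity constants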
Target sequence in this assay (P00746 27-253): as above
Protocol: Kinetics and binding constant KD for Factor D binding to immobilized hu20D12 versions was determined by surface plasmon resonance (SPR) measurements on a Biacore®T200 instrument. […] After subtraction of the sensorgram observed for injection of running buffer, data were analyzed according to a 1:1 model using BiaEval software v4.1 (GE Healthcare) to extract the kinetics and affinity constants.

[4] = molecular target: T1, Cynomolgus monkey complement Factor D; assay: SPR (Biacore T200), Fab format; cynomolgus Factor D (column 'KD (pM) cFD (cyno)')

| Binder | AVG IC50 (pM), TR-FRET assay of Factor D-dependent factor B activation [1] | FRET IC50 (TR-FRET assay of Factor D-dependent factor B activation), value 1 of 2 in the cell [2] | FRET IC50 (TR-FRET assay of Factor D-dependent factor B activation), value 2 of 2 in the cell [2] | Kd [3] | koff [3] | kon [3] | Kd [4] |
| --- | --- | --- | --- | --- | --- | --- | --- |
| AFD.v8.C + PEG tetramer (Fab, V domains shown, C-terminal Cys linked through maleimide to 40K-tetramer-PEG (Sunbright PTE-400MA)) VH: EVQLVQSGPELKKPGASVKVSCKASGYTFTNYGMNWVRQAPGQGLEWMGWINTYTGETTYAEDFKGRFVFSLDTSVSTAYLQISSLKAEDTAVYYCEREGGVNNWGQGTLVTVSS VL: DIQVTQSPSSLSASVGDRVTITCITSTSIESDMNWYQQKPGKVPKLLISGGNTLRPGVPSRFSGSGSGTDFTLTISSLQPEDVATYYCLQSDSLPYTFGQGTKVEIKR | 11 pM | – | – | – | – | – | – |
| AFD.v14.C + PEG tetramer (Fab, V domains shown, C-terminal Cys linked through maleimide to a PEG tetramer) VH: EVQLVQSGPELKKPGASVKVSCKASGYTFTNYGMNWVRQAPGQGLEWMGWINTYTGETTYAEDFKGRFVFSLDTSVSTAYLQISSLKAEDTAVYYCEREGGVSNWGQGTLVTVSS VL: DIQVTQSPSSLSASVGDRVTITCITSTSIESDMNWYQQKPGKVPKLLISGGNTLRPGVPSRFSGSGSGTDFTLTISSLQPEDVATYYCLQSDSLPYTFGQGTKVEIKR | 14.8 pM | – | – | – | – | – | – |
| AFD.v8 Fab (Fab, V domains shown, Variant of lampalizumab) VH: EVQLVQSGPELKKPGASVKVSCKASGYTFTNYGMNWVRQAPGQGLEWMGWINTYTGETTYAEDFKGRFVFSLDTSVSTAYLQISSLKAEDTAVYYCEREGGVNNWGQGTLVTVSS VL: DIQVTQSPSSLSASVGDRVTITCITSTSIESDMNWYQQKPGKVPKLLISGGNTLRPGVPSRFSGSGSGTDFTLTISSLQPEDVATYYCLQSDSLPYTFGQGTKVEIKR | 27.6 pM | 21 pM | 28 pM | 0.0105 nM | 0.00021 s⁻¹ | 2e+07 M⁻¹ s⁻¹ | 0.024 nM |
| Lampalizumab (Fab, V domains shown, Humanized anti-Factor D Fab fragment; also called aFD.WT; FCFD4515S) VH: EVQLVQSGPELKKPGASVKVSCKASGYTFTNYGMNWVRQAPGQGLEWMGWINTYTGETTYADDFKGRFVFSLDTSVSTAYLQISSLKAEDTAVYYCEREGGVNNWGQGTLVTVSS VL: DIQVTQSPSSLSASVGDRVTITCITSTDIDDDMNWYQQKPGKVPKLLISGGNTLRPGVPSRFSGSGSGTDFTLTISSLQPEDVATYYCLQSDSLPYTFGQGTKVEIKR | – | – | – | – | – | – | 0.03 nM |
| hu20D12.v2.3.C + PEG tetramer (Fab, V domains shown, C-terminal Cys linked through maleimide to 40K-tetramer-PEG (Sunbright PTE-400MA)) VH: EVQLVQSGAEVKKPGASVKVSCKASGYTFTSYYMYWVRQAPGQGLEWIGEINPYSGDTNFNEKFKSRATLTVDTSTSTAYLELSSLRSEDTAVYYCAREGGFAYWGQGTLVTVSS VL: DIQMTQSPSSLSASVGDRVTITCKASQNVDTDVAWFQQKPGKAPKGLIRSASSRYSGVPSRFSGSGSGTDFTLTISSLQPEDFATYYCQQYNNYPLTFGQGTKVEIKR | 35.2 pM | – | – | – | – | – | – |
| hu20D12.v2.9 Fab (Fab, V domains shown) VH: EVQLVQSGAEVKKPGASVKVSCKASGYTFTSYYMYWVRQAPGQGLEWIGWINPTSGGTNFNEKFKSRATLTVDTSTSTAYLELSSLRSEDTAVYYCAREGGFAYWGQGTLVTVSS VL: DIQMTQSPSSLSASVGDRVTITCKASQNVDTDVAWFQQKPGKAPKGLIYSASSRYSGVPSRFSGSGSGTDFTLTISSLQPEDFATYYCQQYNNYPLTFGQGTKVEIKR | – | – | – | 0.185 nM | 0.0063 s⁻¹ | 3.4e+07 M⁻¹ s⁻¹ | – |
| hu20D12.v2.2 Fab (Fab, V domains shown) VH: EVQLVQSGAEVKKPGASVKVSCKASGYTFTSYYMYWVRQAPGQGLEWIGEINPTSGDTNFNEKFKSRATLTVDTSTSTAYLELSSLRSEDTAVYYCAREGGFAYWGQGTLVTVSS VL: DIQMTQSPSSLSASVGDRVTITCKASQNVDTDVAWFQQKPGKAPKGLIYSASSRYSGVPSRFSGSGSGTDFTLTISSLQPEDFATYYCQQYNNYPLTFGQGTKVEIKR | – | – | – | 0.065 nM | 0.00095 s⁻¹ | 1.5e+07 M⁻¹ s⁻¹ | – |
| hu20D12.v2.10 Fab (Fab, V domains shown) VH: EVQLVQSGAEVKKPGASVKVSCKASGYTFTSYYMYWVRQAPGQGLEWIGEINPTSGGTNFNEKFKSRATLTVDTSTSTAYLELSSLRSEDTAVYYCAREGGFAYWGQGTLVTVSS VL: DIQMTQSPSSLSASVGDRVTITCKASQNVDTDVAWFQQKPGKAPKGLIYSASSRKSGVPSRFSGSGSGTDFTLTISSLQPEDFATYYCQQYNNYPLTFGQGTKVEIKR | – | – | – | 6 nM | 0.03 s⁻¹ | 5e+06 M⁻¹ s⁻¹ | – |
| hu20D12.v2.8 Fab (Fab, V domains shown) VH: EVQLVQSGAEVKKPGASVKVSCKASGYTFTSYYMYWVRQAPGQGLEWIGEINPTSGGTNFNEKFKSRATLTVDTSTSTAYLELSSLRSEDTAVYYCAREGGFAYWGQGTLVTVSS VL: DIQMTQSPSSLSASVGDRVTITCKASQNVDTDVAWFQQKPGKAPKGLIQSASSRYSGVPSRFSGSGSGTDFTLTISSLQPEDFATYYCQQYNNYPLTFGQGTKVEIKR | – | – | – | 0.061 nM | 0.004 s⁻¹ | 6.6e+07 M⁻¹ s⁻¹ | – |
| hu20D12.v2.11 Fab (Fab, V domains shown) VH: EVQLVQSGAEVKKPGASVKVSCKASGYTFTSYYMYWVRQAPGQGLEWIGEINPTSGGTNFNEKFKSRATLTVDTSTSTAYLELSSLRSEDTAVYYCAREGGFAYWGQGTLVTVSS VL: DIQMTQSPSSLSASVGDRVTITCKASQNVDTDVAWFQQKPGKAPKGLIYSASSRRSGVPSRFSGSGSGTDFTLTISSLQPEDFATYYCQQYNNYPLTFGQGTKVEIKR | – | – | – | 10 nM | 0.03 s⁻¹ | 3e+06 M⁻¹ s⁻¹ | – |
| hu20D12.v2.4 Fab (Fab, V domains shown) VH: EVQLVQSGAEVKKPGASVKVSCKASGYTFTSYYMYWVRQAPGQGLEWIGEINPTSGETNFNEKFKSRATLTVDTSTSTAYLELSSLRSEDTAVYYCAREGGFAYWGQGTLVTVSS VL: DIQMTQSPSSLSASVGDRVTITCKASQNVDTDVAWFQQKPGKAPKGLIYSASSRYSGVPSRFSGSGSGTDFTLTISSLQPEDFATYYCQQYNNYPLTFGQGTKVEIKR | – | – | – | 0.028 nM | 0.00049 s⁻¹ | 1.7e+07 M⁻¹ s⁻¹ | – |
| hu20D12.v2.7 Fab (Fab, V domains shown) VH: EVQLVQSGAEVKKPGASVKVSCKASGYTFTSYYMYWVRQAPGQGLEWIGEINPTSGGTNFNEKFKSRATLTVDTSTSTAYLELSSLRSEDTAVYYCAREGGFAYWGQGTLVTVSS VL: DIQMTQSPSSLSASVGDRVTITCKASQNVDTDVAWFQQKPGKAPKGLIKSASSRYSGVPSRFSGSGSGTDFTLTISSLQPEDFATYYCQQYNNYPLTFGQGTKVEIKR | – | – | – | 0.049 nM | 0.00055 s⁻¹ | 1.1e+07 M⁻¹ s⁻¹ | – |
| hu20D12.v2.6 Fab (Fab, V domains shown) VH: EVQLVQSGAEVKKPGASVKVSCKASGYTFTSYYMYWVRQAPGQGLEWIGEINPTSGGTNFNEKFKSRATLTVDTSTSTAYLELSSLRSEDTAVYYCAREGGFAYWGQGTLVTVSS VL: DIQMTQSPSSLSASVGDRVTITCKASQNVDTDVAWFQQKPGKAPKGLISSASSRYSGVPSRFSGSGSGTDFTLTISSLQPEDFATYYCQQYNNYPLTFGQGTKVEIKR | – | – | – | 0.143 nM | 0.0003 s⁻¹ | 2.1e+06 M⁻¹ s⁻¹ | – |
| hu20D12.v2.5 Fab (Fab, V domains shown) VH: EVQLVQSGAEVKKPGASVKVSCKASGYTFTSYYMYWVRQAPGQGLEWIGEINPYSGGTNFNEKFKSRATLTVDTSTSTAYLELSSLRSEDTAVYYCAREGGFAYWGQGTLVTVSS VL: DIQMTQSPSSLSASVGDRVTITCKASQNVDTDVAWFQQKPGKAPKGLIYSASSRYSGVPSRFSGSGSGTDFTLTISSLQPEDFATYYCQQYNNYPLTFGQGTKVEIKR | – | – | – | 0.045 nM | 0.00079 s⁻¹ | 1.7e+07 M⁻¹ s⁻¹ | – |
